Legend:
Experiment in all cases: BLI
[1] = biological target: recombinant SARS-CoV-2 Beta RBD
[2] = biological target: recombinant SARS-CoV-2 Delta RBD
recombinant SARS-CoV RBD = recombinant SARS-CoV RBD (SARS-CoV, UniProt P59594 306-527)
[3] = biological target: recombinant SARS-CoV-2 Omicron BA.1 RBD
[4] = biological target: recombinant SARS-CoV-2 WT (Wuhan-1) RBD
[5] = biological target: recombinant SARS-CoV-2 Omicron BA.2 RBD

Row | Binder | Kd [1] [nM] | Kd [2] [nM] | Kd (recombinant SARS-CoV RBD) [nM] | Kd [3] [nM] | Kd [4] [nM] | Kd [5] [nM]
1 | ADI-75738 (antibody, V domains shown) VH: QVQLQQWGAGLLKPSETLSLTCGVHDGAFSGYFWNWIRQSPVKGLEWIGEVTHSGNTNYNPSLKSRVTMSVDASKNEFSLNLTSVTAADTAVYYCARGDFYSTRLAFDVWGQGSMVTVSS VL: EIVLTQSPATLSLSPGERATLSCRASQSVSTYLAWYQQRPGQAPRLLIYDASNRATGIPARFSGSGSETDFTLTISSLEPEDFAVYYCQQRSNWLTFGGGTKVEIK | 0.56 | 1.53 | 150 | 2.77 | 0.26 | 1.59
2 | ADI-75700 (antibody, V domains shown) VH: QVQLQQWGAGLLKPSETLSLTCGVYDGSFSDYFWNWIRQPPGKGLEWIGELTHTGSTNYNPSLKSRVTILADTSKSQFSLNLSSVTAADTAVYYCARGDFYSTRLAFDLWGQGTTVTVSS VL: EIALTQSPATLSLSPGERATLSCRASQSVSTYLAWYQQKPGQAPRLLIYDASKRATGIPARFNGSGSGTDFTLTISSLEPEDFAVYYCQQRSTWPTFGGGTKVDIK | 1.23 | 1.22 | 62.2 | 7.01 | 0.24 | 2.51
3 | ADI-75754 (antibody, V domains shown) VH: QVQLVQSGGDLVQPGGSLRLSCVASGFTFSNYEMNWVRQGPGKGLEWISYISTSGSTYYYADSVKGRFTISRDNARNSLYLQMDSLRVEDTAIYYCLTHPQPQYVRPTQVVWFDPWGQGTLVTVSS VL: EMTMTQSPGTLSLSPGERATLSCRASESVSSEYLAWHQQRPGQAPRLLIYGASSRPTGIPDRFSGSGSGTDFTLTISRLEPEDFAVYYCHQFASAPITFGQGTRLEIK | 1.61 | 3.45 | 1.41 | 37 | 3.58 | > 300
4 | ADI-75859 (antibody, V domains shown) VH: QVQLVQSGGGVGQPGRSLRLSCAASGFTFGHYGMHWVRQAPGKGLEWVAAIIYDGSDKQYADSVKGRFTISRDNSKNTVYLQMNSLRPEDTAIYFCAKLGGLYCSGGNCFSGYFDYWGQGTLVTVSS VL: ETTLTQSPSSLSASVGDRVTITCRASQGISNSLAWYQQKPGKAPKLLLYAASTLESGVPSRFSGSGSGTDFTLTIASLQPEDFATYYCQQYYSSVRFTFGQGTILDLN | 0.89 | 0.82 | 226 | 13.3 | 0.36 | 2.37
5 | ADI-75684 (antibody, V domains shown) V domain 1: QVQLQESGPGLVKPSETLSLTCTVSGGSISSDHFYWGWIRQPPGKGLEWIGTTYYTARTNYNPSLKSRVTISVDTSKNQFSLKLTSVTATDTAIYYCARVEVSGGFSGYDFLTPYYFDYWGQGALVTVSS V domain 2: not shown | 1.05 | 1.89 | 2.59 | 1.35 |  | 18.4
